Assay results published in the supplement of paper PMC9112550, “Optimization of the antimicrobial peptide Bac7 by deep mutational scanning” (BMC Biology, 2022).

System: Escherichia coli TOP10
Assay: shrunken log2 fold change of peptide-encoding DNA abundance (4.5 h post-induction vs induction); higher = less antimicrobial activity (less host growth inhibition)
Conditions: time post-induction: 4.5 h; library: site-saturation at positions 5, 18, 19, 20
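Also: peptides expressed intracellularly from a pBAD plasmid library in pooled LB shake-flask culture, induced with 0.3% L-arabinose, DNA abundance read by NGS, three biological replicates, DESeq2 with apeglm shrinkage.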

| Sequence | shrunken log2 fold change |
| --- | --- |
| RRIRFRPPRLPRPRPRPYFNPRP | -1.04 |
| RRIRFRPPRLPRPRPRPYGDPRP | -0.0819 |
| RRIRFRPPRLPRPRPRPYGLPRP | -0.521 |
| RRIRFRPPRLPRPRPRPYGQPRP | -0.101 |
| RRIRFRPPRLPRPRPRPYLEPRP | -0.0738 |
| RRIRFRPPRLPRPRPRPYMAPRP | -0.688 |
| RRIRFRPPRLPRPRPRPYMKPRP | -0.858 |
| RRIRFRPPRLPRPRPRPYPTPRP | -0.324 |
| RRIRFRPPRLPRPRPRPYQRPRP | -0.238 |
| RRIRFRPPRLPRPRPRPYSGPRP | -0.293 |
| RRIRFRPPRLPRPRPRPYSRPRP | -0.187 |
| RRIRFRPPRLPRPRPRPYTHPRP | -0.532 |
| RRIRFRPPRLPRPRPRPYTYPRP | -0.141 |
| RRIRFRPPRLPRPRPRPYVFPRP | -0.408 |
| RRIRFRPPRLPRPRPRPYWPPRP | -0.336 |
| RRIRFRPPRLPRPRPRPYWRPRP | -0.0769 |
| RRIRFRPPRLPRPRPRPYYQPRP | -0.203 |
| RRIRGRPPRLPRPRPRPAAPPRP | 1.38 |
| RRIRGRPPRLPRPRPRPAAVPRP | 1.51 |
| RRIRGRPPRLPRPRPRPACAPRP | 1.13 |
| RRIRGRPPRLPRPRPRPACFPRP | 0.939 |
| RRIRGRPPRLPRPRPRPACVPRP | 0.81 |
| RRIRGRPPRLPRPRPRPADSPRP | 0.283 |
| RRIRGRPPRLPRPRPRPAIIPRP | 0.134 |
| RRIRGRPPRLPRPRPRPAKCPRP | -0.0198 |

| Sequence | shrunken log2 fold change |
| --- | --- |
| RRIRGRPPRLPRPRPRPALCPRP | 0.925 |
| RRIRGRPPRLPRPRPRPALHPRP | 0.866 |
| RRIRGRPPRLPRPRPRPAMNPRP | 0.542 |
| RRIRGRPPRLPRPRPRPAMPPRP | 0.492 |
| RRIRGRPPRLPRPRPRPANNPRP | 0.138 |
| RRIRGRPPRLPRPRPRPANYPRP | 0.0041 |
| RRIRGRPPRLPRPRPRPAPEPRP | 1.34 |
| RRIRGRPPRLPRPRPRPAPQPRP | 1.15 |
| RRIRGRPPRLPRPRPRPARDPRP | 0.585 |
| RRIRGRPPRLPRPRPRPARHPRP | 0.664 |
| RRIRGRPPRLPRPRPRPATAPRP | 0.979 |
| RRIRGRPPRLPRPRPRPAVYPRP | 0.742 |
| RRIRGRPPRLPRPRPRPAWRPRP | 0.934 |
| RRIRGRPPRLPRPRPRPAYAPRP | 0.0503 |
| RRIRGRPPRLPRPRPRPCANPRP | 0.0504 |
| RRIRGRPPRLPRPRPRPCCTPRP | 1.31 |
| RRIRGRPPRLPRPRPRPCCVPRP | 0.751 |
| RRIRGRPPRLPRPRPRPCEIPRP | 0.128 |
| RRIRGRPPRLPRPRPRPCGEPRP | 0.931 |
| RRIRGRPPRLPRPRPRPCGPPRP | 1.29 |
| RRIRGRPPRLPRPRPRPCHEPRP | 0.492 |
| RRIRGRPPRLPRPRPRPCHKPRP | 0.121 |
| RRIRGRPPRLPRPRPRPCHYPRP | 0.0219 |
| RRIRGRPPRLPRPRPRPCIIPRP | 0.191 |
| RRIRGRPPRLPRPRPRPCKQPRP | 0.0431 |

| Sequence | shrunken log2 fold change |
| --- | --- |
| RRIRGRPPRLPRPRPRPCKYPRP | -0.533 |
| RRIRGRPPRLPRPRPRPCLSPRP | 0.0424 |
| RRIRGRPPRLPRPRPRPCMIPRP | 0.235 |
| RRIRGRPPRLPRPRPRPCMLPRP | 0.336 |
| RRIRGRPPRLPRPRPRPCMPPRP | -0.152 |
| RRIRGRPPRLPRPRPRPCNFPRP | 0.138 |
| RRIRGRPPRLPRPRPRPCNHPRP | -0.402 |
| RRIRGRPPRLPRPRPRPCNQPRP | -0.174 |
| RRIRGRPPRLPRPRPRPCPQPRP | 0.654 |
| RRIRGRPPRLPRPRPRPCPWPRP | -0.149 |
| RRIRGRPPRLPRPRPRPCQPPRP | -0.0639 |
| RRIRGRPPRLPRPRPRPCRFPRP | 0.116 |
| RRIRGRPPRLPRPRPRPCRTPRP | 0.225 |
| RRIRGRPPRLPRPRPRPCVCPRP | 0.617 |
| RRIRGRPPRLPRPRPRPCYKPRP | -0.295 |
| RRIRGRPPRLPRPRPRPDAMPRP | 2.4 |
| RRIRGRPPRLPRPRPRPDEHPRP | 1.5 |
| RRIRGRPPRLPRPRPRPDETPRP | 0.349 |
| RRIRGRPPRLPRPRPRPDFHPRP | -0.0976 |
| RRIRGRPPRLPRPRPRPDFKPRP | 0.386 |
| RRIRGRPPRLPRPRPRPDGCPRP | 0.792 |
| RRIRGRPPRLPRPRPRPDGQPRP | 0.175 |
| RRIRGRPPRLPRPRPRPDHAPRP | 0.217 |
| RRIRGRPPRLPRPRPRPDKQPRP | 0.0252 |
| RRIRGRPPRLPRPRPRPDKRPRP | 0.767 |

| Sequence | shrunken log2 fold change |
| --- | --- |
| RRIRGRPPRLPRPRPRPDKTPRP | 0.104 |
| RRIRGRPPRLPRPRPRPDLFPRP | 0.723 |
| RRIRGRPPRLPRPRPRPDLHPRP | 0.655 |
| RRIRGRPPRLPRPRPRPDNAPRP | 0.364 |
| RRIRGRPPRLPRPRPRPDPEPRP | 0.593 |
| RRIRGRPPRLPRPRPRPDQCPRP | 0.196 |
| RRIRGRPPRLPRPRPRPDRRPRP | -0.12 |
| RRIRGRPPRLPRPRPRPDSNPRP | -0.0604 |
| RRIRGRPPRLPRPRPRPDVLPRP | 0.246 |
| RRIRGRPPRLPRPRPRPDVTPRP | 1.31 |
| RRIRGRPPRLPRPRPRPDWEPRP | 0.166 |
| RRIRGRPPRLPRPRPRPDWLPRP | 0.963 |
| RRIRGRPPRLPRPRPRPDYNPRP | -0.12 |
| RRIRGRPPRLPRPRPRPEAAPRP | 3.27 |
| RRIRGRPPRLPRPRPRPEAVPRP | 2.27 |
| RRIRGRPPRLPRPRPRPECFPRP | 1.92 |
| RRIRGRPPRLPRPRPRPEDCPRP | 0.874 |
| RRIRGRPPRLPRPRPRPEEHPRP | 0.131 |
| RRIRGRPPRLPRPRPRPEHVPRP | 0.0775 |
| RRIRGRPPRLPRPRPRPEHYPRP | -0.0809 |
| RRIRGRPPRLPRPRPRPEIYPRP | 0.26 |
| RRIRGRPPRLPRPRPRPEKWPRP | -0.0809 |
| RRIRGRPPRLPRPRPRPELAPRP | 2 |
| RRIRGRPPRLPRPRPRPELWPRP | 2.06 |
| RRIRGRPPRLPRPRPRPEPDPRP | 1.27 |

| Sequence | shrunken log2 fold change |
| --- | --- |
| RRIRGRPPRLPRPRPRPEPFPRP | 0.218 |
| RRIRGRPPRLPRPRPRPEPRPRP | 1.35 |
| RRIRGRPPRLPRPRPRPEQCPRP | 0.0643 |
| RRIRGRPPRLPRPRPRPEQRPRP | 0.926 |
| RRIRGRPPRLPRPRPRPEQWPRP | 0.346 |
| RRIRGRPPRLPRPRPRPERKPRP | 0.92 |
| RRIRGRPPRLPRPRPRPESFPRP | 0.0921 |
| RRIRGRPPRLPRPRPRPESGPRP | 1.12 |
| RRIRGRPPRLPRPRPRPESRPRP | 0.831 |
| RRIRGRPPRLPRPRPRPEVCPRP | 0.955 |
| RRIRGRPPRLPRPRPRPEVFPRP | 1.38 |
| RRIRGRPPRLPRPRPRPEVKPRP | 0.0386 |
| RRIRGRPPRLPRPRPRPEVPPRP | 0.434 |
| RRIRGRPPRLPRPRPRPEWTPRP | 1.27 |
| RRIRGRPPRLPRPRPRPFAWPRP | 0.573 |
| RRIRGRPPRLPRPRPRPFAYPRP | 0.184 |
| RRIRGRPPRLPRPRPRPFDDPRP | 0.0195 |
| RRIRGRPPRLPRPRPRPFDEPRP | 0.294 |
| RRIRGRPPRLPRPRPRPFFKPRP | 0.186 |
| RRIRGRPPRLPRPRPRPFGDPRP | 0.0154 |
| RRIRGRPPRLPRPRPRPFGYPRP | -0.0838 |
| RRIRGRPPRLPRPRPRPFHTPRP | -0.161 |
| RRIRGRPPRLPRPRPRPFIPPRP | -0.429 |
| RRIRGRPPRLPRPRPRPFKCPRP | -0.307 |
| RRIRGRPPRLPRPRPRPFKEPRP | -0.0428 |

| Sequence | shrunken log2 fold change |
| --- | --- |
| RRIRGRPPRLPRPRPRPFNVPRP | -0.101 |
| RRIRGRPPRLPRPRPRPFPAPRP | 0.757 |
| RRIRGRPPRLPRPRPRPFPHPRP | 0.155 |
| RRIRGRPPRLPRPRPRPFPMPRP | 0.533 |
| RRIRGRPPRLPRPRPRPFQDPRP | -0.000102 |
| RRIRGRPPRLPRPRPRPFQEPRP | 0.0152 |
| RRIRGRPPRLPRPRPRPFQNPRP | 0.31 |
| RRIRGRPPRLPRPRPRPFRGPRP | -0.0655 |
| RRIRGRPPRLPRPRPRPFRKPRP | -0.0984 |
| RRIRGRPPRLPRPRPRPFRYPRP | 0.0984 |
| RRIRGRPPRLPRPRPRPFSAPRP | 0.0503 |
| RRIRGRPPRLPRPRPRPFSYPRP | 0.0924 |
| RRIRGRPPRLPRPRPRPFWCPRP | -0.0505 |
| RRIRGRPPRLPRPRPRPGCLPRP | 1.01 |
| RRIRGRPPRLPRPRPRPGCTPRP | 0.885 |
| RRIRGRPPRLPRPRPRPGDDPRP | 0.911 |
| RRIRGRPPRLPRPRPRPGEGPRP | 1.15 |
| RRIRGRPPRLPRPRPRPGEQPRP | 1.23 |
| RRIRGRPPRLPRPRPRPGETPRP | 0.515 |
| RRIRGRPPRLPRPRPRPGHAPRP | 0.801 |
| RRIRGRPPRLPRPRPRPGINPRP | 0.499 |
| RRIRGRPPRLPRPRPRPGKAPRP | 0.529 |
| RRIRGRPPRLPRPRPRPGKGPRP | 0.394 |
| RRIRGRPPRLPRPRPRPGNSPRP | 0.131 |
| RRIRGRPPRLPRPRPRPGQFPRP | -0.00612 |
